From US20260022151A1 (TSINGHUA UNIVERSITY, published 2026)

How the values were obtained:
DR5-GFP [1] = biological target: T1, DR5-GFP; assay: live-cell confocal colocalisation, HEK293T cells co-expressing CXCR4-mCherry and DR5-GFP
T1 construct: Co-expressed with CXCR4-mCherry on transfected HEK293T cells; also called exogenous DR5; DR5 fused with a GFP tag at the C-terminal
Protocol: (§1) HEK293T cells were seeded at a density of 5×10⁵ cells/well into a 4-well chamber 35 mm culture dish (purchased from In Vitro Scientific) and cultured at 37° C., 5% CO₂ until the cell density reached approximately 60-70% confluence. Then, plasmids pCDNA3.1-CXCR4-mCherry and pCDNA3.1-DR5-GFP were gently pipetted and mixed with Opti-MEM Medium (purchased from Invitrogen. Inc.) without antibiotics and serum in a sterile centrifuge tube, in an amount of 0.5 μg pCDNA3.1-CXCR4-mCherry and 0.5 μg pCDNA3.1-DR5-GFP per well. Lipo8000™ transfection reagent (purchased from Shanghai Bio-Tech Biotechnology Co., Ltd.) was added and gently pipetted and mixed again to obtain a plasmid solution for transfection (i.e., each 100 μl Opti-MEM Medium contained 0.5 μg of plasmids pCDNA3.1-CXCR4-mCherry and pCDNA3.1-DR5-GFP, and 1.6 μl Lipo8000). The evenly mixed plasmid solution was added dropwise to each well, gently mixed, and then cultured for 24-36 hours at 37° C., and 5% CO₂ to obtain HEK293T cells co-expressing CXCR4-mCherry and DR5-GFP.
(§2) 200 nM CN-P2S2-DN protein or its different truncated variants P2S2-CN, P2S2. P2S2-DN (all labeled with fluorescent dye Alexa 647) were added to the above cell culture medium. HEK293T cells treated in the same manner with blank solution under the same conditions were used as negative controls. […]

CXCR4-mCherry [2] = biological target: T2, CXCR4-mCherry; assay: as above
T2 construct: Co-expressed with DR5-GFP on transfected HEK293T cells; also called exogenous CXCR4; CXCR4 fused with an mCherry tag at the C-terminal
Protocol: as §1, §2

[3] = biological target: endogenous DR5 receptor on human tumor cells (human, UniProt O14763 56-440); assay: cell-based or functional assay
[4] = biological target: T3, endogenous CXCR4 receptor on human tumor cells (human, UniProt P61073 1-352); assay: FRAP and confocal imaging on SJSA-1 cells, 200 nM
T3 construct: whole, on cells; also called CXC motif chemokine receptor 4
Protocol: Fluorescence recovery after photobleaching (FRAP) is an experiment commonly used to verify liquid-liquid phase separation, see, for example, Alberti, Simon et al., Journal of Molecular Biology 430(23): 4806-4820, 2018: McSwiggen, David T et al., Genes & Development 33(23-24): 1619-1634, 2019. Therefore, FRAP was performed on the same droplets as in Example 4 that contain 12.5 μM CN-P2S2-DN protein. After bleaching with 488 nm laser light at a laser intensity of 50% for 1 second, fluorescence images were taken under a NIKON A1R HD25 laser confocal microscope (purchased from Nikon, Inc.) with a 100× oil immersion objective lens. The images were analyzed and exported using NIS-Elements AR Analysis (Nikon, Inc.) and Image J (National Institutes of Health) software.
SJSA-1 cells were treated with 200 nM CN-P2S2-DN (labeled with Alexa 561) for 4 hrs in the same manner as in Example 5, and photobleaching analysis was performed.

DR5-GFP [5] = biological target: T1, DR5-GFP; assay: time-lapse confocal imaging, HEK293T cells co-expressing CXCR4-mCherry and DR5-GFP, 200 nM
CXCR4-mCherry [6] = biological target: T2, CXCR4-mCherry; assay: as above

T2 sequence (chain, as listed by the source limits assumed): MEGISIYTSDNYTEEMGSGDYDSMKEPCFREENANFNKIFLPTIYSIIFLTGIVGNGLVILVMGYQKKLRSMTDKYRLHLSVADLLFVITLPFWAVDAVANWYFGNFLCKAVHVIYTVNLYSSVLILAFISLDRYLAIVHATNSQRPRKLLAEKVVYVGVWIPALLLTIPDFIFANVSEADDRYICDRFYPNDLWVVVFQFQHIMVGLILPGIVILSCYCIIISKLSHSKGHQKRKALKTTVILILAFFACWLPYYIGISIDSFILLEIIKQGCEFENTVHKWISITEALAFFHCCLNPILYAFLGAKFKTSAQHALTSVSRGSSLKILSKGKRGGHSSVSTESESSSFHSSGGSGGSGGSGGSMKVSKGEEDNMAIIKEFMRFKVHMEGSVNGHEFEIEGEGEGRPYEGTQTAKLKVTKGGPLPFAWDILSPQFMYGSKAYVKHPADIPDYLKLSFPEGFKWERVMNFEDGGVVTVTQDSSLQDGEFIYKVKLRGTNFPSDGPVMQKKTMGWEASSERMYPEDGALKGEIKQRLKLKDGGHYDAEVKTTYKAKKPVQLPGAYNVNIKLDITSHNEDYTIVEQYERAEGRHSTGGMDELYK
T3 sequence (P61073 whole entry): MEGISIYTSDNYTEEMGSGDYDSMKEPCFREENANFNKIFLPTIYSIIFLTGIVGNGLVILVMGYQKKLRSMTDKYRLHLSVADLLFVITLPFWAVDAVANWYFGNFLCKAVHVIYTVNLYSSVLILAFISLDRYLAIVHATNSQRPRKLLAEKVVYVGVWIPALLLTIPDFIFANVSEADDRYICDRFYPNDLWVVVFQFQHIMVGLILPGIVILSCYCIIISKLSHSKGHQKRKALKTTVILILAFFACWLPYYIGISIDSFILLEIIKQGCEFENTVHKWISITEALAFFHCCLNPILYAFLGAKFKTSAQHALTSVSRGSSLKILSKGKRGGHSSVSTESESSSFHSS

Row | Binder | binding result (DR5-GFP [1]) | binding result (CXCR4-mCherry [2]) | IC50 of apoptosis induction in CXCR4/DR5 COLO-205 cells (Annexin V-FITC/PI flow cytometry) [3] [nM] | IC50 of apoptosis induction in CXCR4/DR5 SJSA-1 cells (Annexin V-FITC/PI flow cytometry) [3] [nM] | apoptosis ratio in other CXCR4+/DR5+ double-positive tumor cell lines, 200 nM, 5 hr [3] [%] | apoptosis ratio, COLO-205 cells, 100 nM, 3 hr [3] [%] | apoptosis ratio, SJSA-1 tumor cells, 100 nM, 3 hr [3] [%] | binding result [4] | binding result (DR5-GFP [5]) | binding result (CXCR4-mCherry [6])
1 | truncated variant P2S2 (other, fluorescent dye label by Alexa Fluor C5 maleimide; labelled residue not stated) MKGGSWGGSKKTPPPVPPRTTSKGGSGGSGGSGGSKKTPPPVPPRTTSKGGSGGSGGSGGSDLNMPAYVKFNYMAEREDELSLIKGTKVIVMEKSSDGWWRGSYNGQVGWFPSNYVTEEGDSPLASGAGGSEGGGSEGGTSGATDLNMPAYVKFNYMAEREDELSLIKGTKVIVMEKSSDGWWRGSYNGQVGWFPSNYVTEEGDSPLG | no binding (tested: 200 nM) | no binding (tested: 200 nM) |  |  |  |  |  |  |  | 
2 | recombinant protein CN-P2S2-DN (designed binder, fluorescent dye label by Alexa Fluor C5 maleimide (Alexa 647, Alexa 561 or Alexa 546 in the imaging experiments); labelled residue not stated, MBP removed by TEV protease; Unlabelled, endotoxin-free protein was used in the apoptosis assays; also called synthetic ligand CN-P2S2-DN; recombinant ligand CN-P2S2-DN) EVQLMESGGGLVQAGGSLRLSCAASGRTFNNYAMGWFRRAPKGEREFVAAITRSGVRSGVSAIYGDSVKDRFTISRDNAKNTLYLQMNSLKPEDTAVYTCAASAIGSGALRRFEYDYSGQGTQVTVSSGGSGGSGGSGGSASMKGGSWGGSKKTPPPVPPRTTSKGGSGGSGGSGGSKKTPPPVPPRTTSKGGSGGSGGSGGSDLNMPAYVKFNYMAEREDELSLIKGTKVIVMEKSSDGWWRGSYNGQVGWFPSNYVTEEGDSPLASGAGGSEGGGSEGGTSGATDLNMPAYVKFNYMAEREDELSLIKGTKVIVMEKSSDGWWRGSYNGQVGWFPSNYVTEEGDSPLGSMGMGEVQLLESGGGLVQPGGSLRLSCAASGTFDKINNMGWYRQAPGKQRDLVAQITPGGITDYADSVKGRFTISRDNSKNTLYLQMNSLRPEDTAVYYCNAEILKRAYIDVYVNYWGQGTLVTVSS |  |  | 28.9 | 10.1 | > 40 | 74 | 82.5 | binds | binds | binds
